The text below walks through data of patent US20220275059A1 (HARBOUR ANTIBODIES, published 2022).

Numbering of substitutions follows the chain as printed. Where “and” joins values, the source holds several entries; their conditions need not be identical. Identical values can stand only once.

Experiment [1] addresses T1, MERS-CoV S S1 subunit (MERS-S1) (MERS-CoV EMC isolate, UniProt K9N5Q8 19-748). In words: see FIG. 29A.
For experiment [2], the target named is T2, MERS-S on pseudotyped VSV particles (MERS-S carrying a 16-a.a. cytoplasmic tail truncation) (MERS-CoV, UniProt K9N5Q8 18-1337). The experiment in a line: cell-based or functional assay.
Experiment [3] deals with T1, MERS-CoV S S1 subunit (MERS-S1). The experiment in a line: ELISA on coated MERS-S1, OD450 [D]. In general terms: In an ELISA, binding on a coated surface is turned into a signal by an enzyme label.
Experiment [4] addresses T2, MERS-S on pseudotyped VSV particles …. In words: cell-based or functional assay. This is another data set of the same source.
The target in a further experiment is peptide 11. The experiment in a line: ELISA on coated overlapping MERS-S2 peptides, A450 [D00032 Fig. 14(B].
In another experiment the target is peptide 10. The experiment is described as above.
In another experiment the target is T3, MERS-S1^A domain (MERS-CoV EMC isolate, UniProt K9N5Q8 19-357).
T3 sequence: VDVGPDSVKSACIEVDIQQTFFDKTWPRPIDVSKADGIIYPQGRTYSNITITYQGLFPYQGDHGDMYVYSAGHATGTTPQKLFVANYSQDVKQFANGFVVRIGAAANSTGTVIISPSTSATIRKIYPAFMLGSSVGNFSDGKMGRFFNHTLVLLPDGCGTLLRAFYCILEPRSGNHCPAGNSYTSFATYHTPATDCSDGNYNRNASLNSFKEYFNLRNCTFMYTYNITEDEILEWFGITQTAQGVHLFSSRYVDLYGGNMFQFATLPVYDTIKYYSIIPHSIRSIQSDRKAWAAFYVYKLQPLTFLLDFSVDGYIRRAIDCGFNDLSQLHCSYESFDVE
The experiment in a line: ELISA on coated MERS-S1^A, OD450 [D].

The target of experiment [5] is T4, NL63 coronavirus spike protein (HCoV-NL63, UniProt Q6Q1S2 16-1291).
T4 sequence: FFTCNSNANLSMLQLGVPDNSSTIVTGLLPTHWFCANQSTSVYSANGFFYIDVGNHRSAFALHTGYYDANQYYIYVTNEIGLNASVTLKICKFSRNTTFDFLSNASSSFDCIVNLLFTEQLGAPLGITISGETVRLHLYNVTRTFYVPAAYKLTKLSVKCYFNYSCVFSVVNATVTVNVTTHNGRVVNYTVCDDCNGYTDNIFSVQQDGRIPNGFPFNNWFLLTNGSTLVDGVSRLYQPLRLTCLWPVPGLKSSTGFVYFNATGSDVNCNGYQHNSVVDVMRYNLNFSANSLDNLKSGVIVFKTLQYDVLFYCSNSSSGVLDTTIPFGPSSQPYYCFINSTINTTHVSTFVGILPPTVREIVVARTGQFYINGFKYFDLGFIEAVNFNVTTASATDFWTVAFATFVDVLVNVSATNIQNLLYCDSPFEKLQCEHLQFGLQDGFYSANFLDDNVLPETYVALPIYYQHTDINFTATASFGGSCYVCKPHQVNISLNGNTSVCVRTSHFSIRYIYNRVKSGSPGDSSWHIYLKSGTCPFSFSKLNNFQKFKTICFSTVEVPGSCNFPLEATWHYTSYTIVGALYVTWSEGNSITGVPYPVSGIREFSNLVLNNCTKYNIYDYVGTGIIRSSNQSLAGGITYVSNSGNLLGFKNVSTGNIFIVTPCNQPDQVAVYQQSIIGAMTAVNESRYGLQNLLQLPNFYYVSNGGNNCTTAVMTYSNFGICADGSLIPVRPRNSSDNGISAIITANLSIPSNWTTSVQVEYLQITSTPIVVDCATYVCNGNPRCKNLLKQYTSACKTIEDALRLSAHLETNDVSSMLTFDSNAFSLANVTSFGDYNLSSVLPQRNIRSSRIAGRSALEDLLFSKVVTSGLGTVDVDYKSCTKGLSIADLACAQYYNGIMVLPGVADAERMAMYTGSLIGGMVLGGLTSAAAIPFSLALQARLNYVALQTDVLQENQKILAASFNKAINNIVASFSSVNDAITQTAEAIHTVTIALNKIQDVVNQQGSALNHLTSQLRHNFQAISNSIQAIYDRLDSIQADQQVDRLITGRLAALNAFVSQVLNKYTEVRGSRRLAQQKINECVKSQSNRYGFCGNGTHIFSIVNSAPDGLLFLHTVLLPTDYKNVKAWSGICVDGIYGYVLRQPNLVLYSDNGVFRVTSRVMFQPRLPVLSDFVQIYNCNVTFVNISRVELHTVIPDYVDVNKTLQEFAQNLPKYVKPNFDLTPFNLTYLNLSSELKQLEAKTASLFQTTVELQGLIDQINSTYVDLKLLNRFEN
In words: ELISA on NL63 Secto.

Experiment [6] deals with MERS-S2 ectodomain (MERS-S2^ecto) (MERS-CoV EMC isolate, UniProt K9N5Q8 752-1262).
Experiment [7] concerns the target T5, MERS-S1^B domain (receptor binding domain) (MERS-CoV EMC isolate, UniProt K9N5Q8 358-588). The experiment in a line: ELISA on coated MERS-S1^B, OD450 [D].
In experiment [8] the target is T5, MERS-S1^B domain (receptor binding …). In words: see FIGS. 5(A) and 29(A).
Experiment [9] shares this target. The experiment in a line: see FIG. 5A.
Experiment [10] concerns the target T1, MERS-CoV S S1 subunit (MERS-S1). The experiment in a line: MERS-S1 specific ELISA.

B1: 7.8h1 (antibody, V domains shown)
VH: QVQLVQSGAEVKKPGASVKVSCKASGYTFTSYDINWVRQATGQGLEWMGWMNPISGNTGYAQKFQGRVTMTRNTSRSTAYMELSSLRSEDTAVYYCARGQWLFDYWGQGTLVTVSS
VL: DIQMTQSPSTLSASIGDRVTITCRASQTISSWLAWYQQKPGKAPKLLIYKASSLESGVPSRFSGSGSGTEFTLTISSLQPDDFATYYCQQYNFYSYTFGQGTKLEIRR
As to B1, the binding result in experiment [1] is “binds”.

B2: 1.6c7 (antibody, V domains shown)
VH: QVQLQQSGPGLVKPSQTLSLTCAISGDSVSSDSAAWNWIRQSPSRGLEWLGRTYFRSKWNNHYAVSVKSRITINPDTSKNQFSLLLNPVTPEDTAVYYCARATLARGALDYWGQGTLVTVSS
VL: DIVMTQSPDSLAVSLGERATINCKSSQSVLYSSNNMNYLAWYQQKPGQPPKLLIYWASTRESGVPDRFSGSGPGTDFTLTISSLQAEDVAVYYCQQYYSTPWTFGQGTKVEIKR
In general, EC50 (read off the curve) refers to the concentration at which the effect is half-maximal. Low readings indicate higher potency in that assay, high ones lower potency in that assay. With B2, the “IC50, MERS-S pseudovirus (human IgG1)” value in experiment [2] came to 2.45 nM. In experiment [2], the “IC50, neutralization of MERS-S pseudovirus infectivity (1.6c7 antibody, H2L2)” value was ~0.59 µg/mL. Moreover, the binding result is recorded as “no binding (tested: about 5x10^5 ng/ml)” in experiment [3]; “no binding” with peptide 11; “no binding” with peptide 10; “no binding (tested: about 5x10^5 ng/ml)” in the experiment with MERS-S1^A domain; “no binding (tested: 25.00 (no unit printed))” in experiment [5]; “no binding (tested: about 5x10^5 ng/ml)” in [7]. Besides, the “IC50, neutralisation of MERS-S VSV pseudovirus on Vero cells” value in experiment [4] is 0.367 µg/ml and 2.45 nM. In experiment [6], the “EC50 (read off the curve)” value is ~0.03 µg/mL.

B3: 7.7a9 (antibody, V domains shown)
VH: EVQLLESGGGSVQPGGSLRLSCEASGFTFNTYPMSWVRQAPGKGLEWVSGISGSGDRTFYEDSVKGRFTISRDNSKNTLYLQMHSLRGEDTAVYYCAKDLGGEGYWGQGTLVTVSS
VL: QAVVTQESALTTSPGETVTLTCRSSTGAVTTSNYANWVQKKPDHLFTGLIGGTNNRAPGVPARFSGSLIGDKAALTITGAQTEDEAIYFCALWYSNHSVFGGGTKLTVLG
For B3, the binding result in experiment [8] was “binds”.

B4: 7.4f3 (antibody, V domains shown)
VH: B3 VH with S11L, A24D, F27V, N30S, T31S, Y32N, A40G, H84N, G88A, Y105N
VL: B3 VL with T31I, K40E, L45S, S95N, H97Q
Take B4: the binding result in [9] was “binds”.

B5: 5F1 heavy chain-only antibody (antibody, V domains shown)
VH: EVQLVESGGGLVQPGGSLRLSCAASGFTFSSYWMHWVRQAPGKGLVWVSRINSDGSSTSYADSVKGRFTISRDNAKNTLYLQMNSLRAEDTAVYYCGNPYFDYWGQGTLVTVSS
B5: the binding result in [10] was “binds”.
